B1: Kinesin-like protein KIF16B, residues 1213 to 1273; numbered along this chain, Q96L93 (parent)
chain: ETWTVFRRYSRFREMHKTLKLKYAELAALEFPPKKLFGNKDERVIAERRSHLEKYLRDFFS

The text below walks through data of the Human Domainome abundance scans (Beltran et al. 2025).

± gives the uncertainty stated by the source.

Variants of B1 are the subject of this series. Briefly: abundance fitness (aPCA) (normalised: wild type 0, dead -1); higher = more abundant; growth selection in yeast, the domain comes from the species named. The following applies: Homo sapiens.
ETWTVFRRYSRFREMHKTLKLKYAELAALEFLPKKLFGNKDERVIAERRSHLEKYLRDFFS: the abundance fitness turned out to be 0.296 ± 0.056.
Consider ETWTVFRRYSRFREMHKTLKLKYAELAALEFDPKKLFGNKDERVIAERRSHLEKYLRDFFS, for which the abundance fitness is -0.082 ± 0.11.
The figure for ETWTVFRRYSRFREMHKTLKLKYAELAALEFHPKKLFGNKDERVIAERRSHLEKYLRDFFS is 0.166 ± 0.47; for ETWTVFRRYSRFREMHKTLKLKYAELAALEFSPKKLFGNKDERVIAERRSHLEKYLRDFFS it is 0.159 ± 0.085.
The figure for ETWTVFRRYSRFREMHKTLKLKYAELAALEFMPKKLFGNKDERVIAERRSHLEKYLRDFFS is 0.191 ± 0.046; for ETWTVFRRYSRFREMHKTLKLKYAELAALEFWPKKLFGNKDERVIAERRSHLEKYLRDFFS it is 0.353 ± 0.065.
As for ETWTVFRRYSRFREMHKTLKLKYAELAALEFCPKKLFGNKDERVIAERRSHLEKYLRDFFS, the figure is 0.171 ± 0.075; as for ETWTVFRRYSRFREMHKTLKLKYAELAALEFTPKKLFGNKDERVIAERRSHLEKYLRDFFS, 0.069 ± 0.056; as for ETWTVFRRYSRFREMHKTLKLKYAELAALEFAPKKLFGNKDERVIAERRSHLEKYLRDFFS, 0.075 ± 0.055.
For ETWTVFRRYSRFREMHKTLKLKYAELAALEFRPKKLFGNKDERVIAERRSHLEKYLRDFFS, the abundance fitness came to 0.139 ± 0.049.
ETWTVFRRYSRFREMHKTLKLKYAELAALEFQPKKLFGNKDERVIAERRSHLEKYLRDFFS: the abundance fitness was -0.243 ± 0.081.
The figure for ETWTVFRRYSRFREMHKTLKLKYAELAALEFKPKKLFGNKDERVIAERRSHLEKYLRDFFS is 0.275 ± 0.065; for ETWTVFRRYSRFREMHKTLKLKYAELAALEFFPKKLFGNKDERVIAERRSHLEKYLRDFFS it is 0.329 ± 0.093; for ETWTVFRRYSRFREMHKTLKLKYAELAALEFEPKKLFGNKDERVIAERRSHLEKYLRDFFS it is -0.374 ± 0.086.
Take ETWTVFRRYSRFREMHKTLKLKYAELAALEFNPKKLFGNKDERVIAERRSHLEKYLRDFFS: the abundance fitness was determined as 0.209 ± 0.088.
For ETWTVFRRYSRFREMHKTLKLKYAELAALEFYPKKLFGNKDERVIAERRSHLEKYLRDFFS, the abundance fitness was -0.691 ± 0.38.
For ETWTVFRRYSRFREMHKTLKLKYAELAALESPPKKLFGNKDERVIAERRSHLEKYLRDFFS, the abundance fitness was -0.699 ± 0.15.
As for ETWTVFRRYSRFREMHKTLKLKYAELAALELPPKKLFGNKDERVIAERRSHLEKYLRDFFS, the figure is -0.397 ± 0.12; as for ETWTVFRRYSRFREMHKTLKLKYAELAALEDPPKKLFGNKDERVIAERRSHLEKYLRDFFS, -0.946 ± 0.38.
The figure for ETWTVFRRYSRFREMHKTLKLKYAELAALERPPKKLFGNKDERVIAERRSHLEKYLRDFFS is -0.692 ± 0.09; for ETWTVFRRYSRFREMHKTLKLKYAELAALENPPKKLFGNKDERVIAERRSHLEKYLRDFFS it is -0.703 ± 0.2; for ETWTVFRRYSRFREMHKTLKLKYAELAALEEPPKKLFGNKDERVIAERRSHLEKYLRDFFS it is -0.46 ± 0.11.
The figure for ETWTVFRRYSRFREMHKTLKLKYAELAALEVPPKKLFGNKDERVIAERRSHLEKYLRDFFS is -0.545 ± 0.079.
Regarding ETWTVFRRYSRFREMHKTLKLKYAELAALEAPPKKLFGNKDERVIAERRSHLEKYLRDFFS, the abundance fitness is -0.573 ± 0.18.
As for ETWTVFRRYSRFREMHKTLKLKYAELAALETPPKKLFGNKDERVIAERRSHLEKYLRDFFS, the figure is -0.949 ± 0.19; as for ETWTVFRRYSRFREMHKTLKLKYAELAALEWPPKKLFGNKDERVIAERRSHLEKYLRDFFS, 0.194 ± 0.062; as for ETWTVFRRYSRFREMHKTLKLKYAELAALEYPPKKLFGNKDERVIAERRSHLEKYLRDFFS, -0.295 ± 0.35.
As to ETWTVFRRYSRFREMHKTLKLKYAELAALEKPPKKLFGNKDERVIAERRSHLEKYLRDFFS, the abundance fitness is -0.752 ± 0.35.
The figure for ETWTVFRRYSRFREMHKTLKLKYAELAALEIPPKKLFGNKDERVIAERRSHLEKYLRDFFS is -0.64 ± 0.32; for ETWTVFRRYSRFREMHKTLKLKYAELAALEQPPKKLFGNKDERVIAERRSHLEKYLRDFFS it is -0.716 ± 0.24.
The figure for ETWTVFRRYSRFREMHKTLKLKYAELAALECPPKKLFGNKDERVIAERRSHLEKYLRDFFS is -0.644 ± 0.15; for ETWTVFRRYSRFREMHKTLKLKYAELAALEGPPKKLFGNKDERVIAERRSHLEKYLRDFFS it is -0.862 ± 0.12; for ETWTVFRRYSRFREMHKTLKLKYAELAALWFPPKKLFGNKDERVIAERRSHLEKYLRDFFS it is 0.313 ± 0.071.
As for ETWTVFRRYSRFREMHKTLKLKYAELAALVFPPKKLFGNKDERVIAERRSHLEKYLRDFFS, the figure is 0.372 ± 0.042; as for ETWTVFRRYSRFREMHKTLKLKYAELAALTFPPKKLFGNKDERVIAERRSHLEKYLRDFFS, 0.108 ± 0.093; as for ETWTVFRRYSRFREMHKTLKLKYAELAALYFPPKKLFGNKDERVIAERRSHLEKYLRDFFS, 0.322 ± 0.047.
ETWTVFRRYSRFREMHKTLKLKYAELAALEFPAKKLFGNKDERVIAERRSHLEKYLRDFFS: the abundance fitness came out at 0.047 ± 0.059.
With ETWTVFRRYSRFREMHKTLKLKYAELAALEFPHKKLFGNKDERVIAERRSHLEKYLRDFFS, the abundance fitness came out at 0.107 ± 0.15.
As for ETWTVFRRYSRFREMHKTLKLKYAELAALEFPIKKLFGNKDERVIAERRSHLEKYLRDFFS, the figure is 0.24 ± 0.39; as for ETWTVFRRYSRFREMHKTLKLKYAELAALEFPKKKLFGNKDERVIAERRSHLEKYLRDFFS, 0.035 ± 0.13; as for ETWTVFRRYSRFREMHKTLKLKYAELAALEFPFKKLFGNKDERVIAERRSHLEKYLRDFFS, 0.495 ± 0.096.
As for ETWTVFRRYSRFREMHKTLKLKYAELAALEFPGKKLFGNKDERVIAERRSHLEKYLRDFFS, the figure is 0.279 ± 0.038; as for ETWTVFRRYSRFREMHKTLKLKYAELAALEFPEKKLFGNKDERVIAERRSHLEKYLRDFFS, -0.857 ± 0.24.
As for ETWTVFRRYSRFREMHKTLKLKYAELAALEFPDKKLFGNKDERVIAERRSHLEKYLRDFFS, the abundance fitness is -1.07 ± 0.42.
